Laboratory results from US20120316071A1 (published 2012).
Changes are numbered by the printed parent chain. In names and notes the source's numbering stands.

B1: Fab VH5-51_IGHD5-18*01>3_IGHJ4*01 G100K/G104T G24T/S28R/G35V (H:KT TRV) & V3-4_IGLJ1*01 (Fab, V domains shown)
VH: EVQLVQSGAEVKKPGESLKISCKTSGYRFTSYWIVWVRQMPGKGLEWMGIIYPGDSDTRYSPSFQGQVTISADKSISTAYLQWSSLKASDTAMYYCARRKYSYTYDYFDYWGQGTLVTVSS
VL: QTVVTQEPSFSVSPGGTVTLTCGLSSGSVSTSYYPSWYQQTPGQAPRTLIYSTNTRSSGVPDRFSGSILGNKAALTITGAQADDESDYYCVLYMGSGISYVFGTGTKVTVL
notes: Fab with the parent (unmutated) light chain; expressed from plasmid A (CH1, His6 and Flag tags) and plasmid E (lambda CL); also called H:KT TRV & L:wt
B2: Fab VH5-51_IGHD5-18*01>3_IGHJ4*01 G100K/G104T G24T/S28R/G35V (H:KT TRV) & V3-4_IGLJ1*01 M94D (Fab, V domains shown)
VH: B1 VH
VL: B1 VL with M94D
notes: Fab; expressed from plasmid A (CH1, His6 and Flag tags) and plasmid E (lambda CL)
B3: Fab VH5-51_IGHD5-18*01>3_IGHJ4*01 G100K/G104T G24T/S28R/G35V (H:KT TRV) & V3-4_IGLJ1*01 M94A (Fab, V domains shown)
VH: B1 VH
VL: B1 VL with M94A
notes: as for B2
B4: Fab VH1-46_IGHD6-6*01_IGHJ1*01 S102A/S103P/S104F/H111F (APFF) & L6_IGKJ1*01 (Fab, V domains shown)
VH: QVQLVQSGAEVKKPGASVKVSCKASGYTFTSYYMHWVRQAPGQGLEWMGIINPSGGSTSYAQKFQGRVTMTRDTSTSTVYMELSSLRSEDTAVYYCAREEYAPFSAEYFQFWGQGTLVTVSS
VL: not shown
notes: Fab made in E. coli; The constant parts (CH1 with His6 and Flag tags from plasmid A, kappa CL from plasmid C) are not added here; also called H:APFF & L:wt; APFF & parent
B5: Fab VH1-46_IGHD6-6*01_IGHJ1*01 S102A/S103P/S104F/H111F (APFF) & L6_IGKJ1*01 S30R (Fab, V domains shown)
VH: B4 VH
VL: EIVLTQSPATLSLSPGERATLSCRASQSVRSYLAWYQQKPGQAPRLLIYDASNRATGIPARFSGSGSGTDFTLTISSLEPEDFAVYYCQQRSNWPPWTFGQGTKVEIKR
notes: Fab made in E. coli; The constant parts (CH1 with His6 and Flag tags from plasmid A, kappa CL from plasmid C) are not added here; also called APFF & S30R
B6: Fab VH1-46_IGHD6-6*01_IGHJ1*01 S102A/S103P/S104F/H111F (APFF) & L6_IGKJ1*01 S31V (Fab, V domains shown)
VH: B4 VH
VL: B5 VL with R30S, S31V
notes: Fab made in E. coli; The constant parts (CH1 with His6 and Flag tags from plasmid A, kappa CL from plasmid C) are not added here; also called APFF & S31V
B7: Fab VH1-46_IGHD6-6*01_IGHJ1*01 S102A/S103P/S104F/H111F (APFF) & L6_IGKJ1*01 S31N (Fab, V domains shown)
VH: B4 VH
VL: B5 VL with R30S, S31N
notes: Fab made in E. coli; The constant parts (CH1 with His6 and Flag tags from plasmid A, kappa CL from plasmid C) are not added here; also called APFF & S31N
B8: Fab VH1-46_IGHD6-6*01_IGHJ1*01 S102A/S103P/S104F/H111F (APFF) & L6_IGKJ1*01 S31P (Fab, V domains shown)
VH: B4 VH
VL: B5 VL with R30S, S31P
notes: Fab made in E. coli; The constant parts (CH1 with His6 and Flag tags from plasmid A, kappa CL from plasmid C) are not added here; also called APFF & S31P
B9: Fab VH1-46_IGHD6-6*01_IGHJ1*01 S102A/S103P/S104F/H111F (APFF) & L6_IGKJ1*01 S31D (Fab, V domains shown)
VH: B4 VH
VL: B5 VL with R30S, S31D
notes: Fab made in E. coli; The constant parts (CH1 with His6 and Flag tags from plasmid A, kappa CL from plasmid C) are not added here; also called APFF & S31D
B10: Fab VH1-46_IGHD6-6*01_IGHJ1*01 S102A/S103P/S104F/H111F (APFF) & L6_IGKJ1*01 S30N (Fab, V domains shown)
VH: B4 VH
VL: B5 VL with R30N
notes: Fab made in E. coli; The constant parts (CH1 with His6 and Flag tags from plasmid A, kappa CL from plasmid C) are not added here; also called APFF & S30N
B11: Fab VH1-46_IGHD6-6*01_IGHJ1*01 S102A/S103P/S104F/H111F (APFF) & L6_IGKJ1*01 S31T (Fab, V domains shown)
VH: B4 VH
VL: B5 VL with R30S, S31T
notes: Fab made in E. coli; The constant parts (CH1 with His6 and Flag tags from plasmid A, kappa CL from plasmid C) are not added here; also called APFF & S31T
B12: Fab VH1-46_IGHD6-6*01_IGHJ1*01 S102A/S103P/S104F/H111F (APFF) & L6_IGKJ1*01 S31Y (Fab, V domains shown)
VH: B4 VH
VL: B5 VL with R30S, S31Y
notes: Fab made in E. coli; The constant parts (CH1 with His6 and Flag tags from plasmid A, kappa CL from plasmid C) are not added here; also called APFF & S31Y
B13: Fab VH1-46_IGHD6-6*01_IGHJ1*01 S102A/S103P/S104F/H111F (APFF) & L6_IGKJ1*01 S30G (Fab, V domains shown)
VH: B4 VH
VL: B5 VL with R30G
notes: Fab made in E. coli; The constant parts (CH1 with His6 and Flag tags from plasmid A, kappa CL from plasmid C) are not added here; also called APFF & S30G
B14: Fab VH1-46_IGHD6-6*01_IGHJ1*01 S102A/S103P/S104F/H111F (APFF) & L6_IGKJ1*01 S30V (Fab, V domains shown)
VH: B4 VH
VL: B5 VL with R30V
notes: Fab made in E. coli; The constant parts (CH1 with His6 and Flag tags from plasmid A, kappa CL from plasmid C) are not added here; also called APFF & S30V
B15: Fab VH1-46_IGHD6-6*01_IGHJ1*01 S102A/S103P/S104F/H111F (APFF) & L6_IGKJ1*01 S31A (Fab, V domains shown)
VH: B4 VH
VL: B5 VL with R30S, S31A
notes: Fab made in E. coli; The constant parts (CH1 with His6 and Flag tags from plasmid A, kappa CL from plasmid C) are not added here; also called APFF & S31A
B16: Fab VH1-46_IGHD6-6*01_IGHJ1*01 S102A/S103P/S104F/H111F (APFF) & L6_IGKJ1*01 S31F (Fab, V domains shown)
VH: B4 VH
VL: B5 VL with R30S, S31F
notes: Fab made in E. coli; The constant parts (CH1 with His6 and Flag tags from plasmid A, kappa CL from plasmid C) are not added here; also called APFF & S31F
B17: Fab VH1-46_IGHD6-6*01_IGHJ1*01 S102A/S103P/S104F/H111F (APFF) & L6_IGKJ1*01 S30P (Fab, V domains shown)
VH: B4 VH
VL: B5 VL with R30P
notes: Fab made in E. coli; The constant parts (CH1 with His6 and Flag tags from plasmid A, kappa CL from plasmid C) are not added here; also called APFF & S30P
B18: Fab VH1-46_IGHD6-6*01_IGHJ1*01 S102A/S103P/S104F/H111F (APFF) & L6_IGKJ1*01 S31H (Fab, V domains shown)
VH: B4 VH
VL: B5 VL with R30S, S31H
notes: Fab made in E. coli; The constant parts (CH1 with His6 and Flag tags from plasmid A, kappa CL from plasmid C) are not added here; also called APFF & S31H
B19: Fab VH1-46_IGHD6-6*01_IGHJ1*01 S102A/S103P/S104F/H111F (APFF) & L6_IGKJ1*01 S31R (Fab, V domains shown)
VH: B4 VH
VL: B5 VL with R30S, S31R
notes: Fab made in E. coli; The constant parts (CH1 with His6 and Flag tags from plasmid A, kappa CL from plasmid C) are not added here; also called APFF & S31R
B20: Fab VH1-46_IGHD6-6*01_IGHJ1*01 S102A/S103P/S104F/H111F (APFF) & L6_IGKJ1*01 S30Q (Fab, V domains shown)
VH: B4 VH
VL: B5 VL with R30Q
notes: Fab made in E. coli; The constant parts (CH1 with His6 and Flag tags from plasmid A, kappa CL from plasmid C) are not added here; also called APFF & S30Q
B21: Fab VH1-46_IGHD6-6*01_IGHJ1*01 S102A/S103P/S104F/H111F (APFF) & L6_IGKJ1*01 S31M (Fab, V domains shown)
VH: B4 VH
VL: B5 VL with R30S, S31M
notes: Fab made in E. coli; The constant parts (CH1 with His6 and Flag tags from plasmid A, kappa CL from plasmid C) are not added here; also called APFF & S31M
B22: Fab VH1-46_IGHD6-6*01_IGHJ1*01 S102A/S103P/S104F/H111F (APFF) & L6_IGKJ1*01 S31L (Fab, V domains shown)
VH: B4 VH
VL: B5 VL with R30S, S31L
notes: Fab made in E. coli; The constant parts (CH1 with His6 and Flag tags from plasmid A, kappa CL from plasmid C) are not added here; also called APFF & S31L
B23: Fab VH1-46_IGHD6-6*01_IGHJ1*01 S102A/S103P/S104F/H111F (APFF) & L6_IGKJ1*01 S31Q (Fab, V domains shown)
VH: B4 VH
VL: B5 VL with R30S, S31Q
notes: Fab made in E. coli; The constant parts (CH1 with His6 and Flag tags from plasmid A, kappa CL from plasmid C) are not added here; also called APFF & S31Q
B24: Fab VH1-46_IGHD6-6*01_IGHJ1*01 S102A/S103P/S104F/H111F (APFF) & L6_IGKJ1*01 S31E (Fab, V domains shown)
VH: B4 VH
VL: B5 VL with R30S, S31E
notes: Fab made in E. coli; The constant parts (CH1 with His6 and Flag tags from plasmid A, kappa CL from plasmid C) are not added here; also called APFF & S31E
B25: Fab VH1-46_IGHD6-6*01_IGHJ1*01 S102A/S103P/S104F/H111F (APFF) & L6_IGKJ1*01 S31I (Fab, V domains shown)
VH: B4 VH
VL: B5 VL with R30S, S31I
notes: Fab made in E. coli; The constant parts (CH1 with His6 and Flag tags from plasmid A, kappa CL from plasmid C) are not added here; also called APFF & S31I
B26: Fab VH1-46_IGHD6-6*01_IGHJ1*01 S102A/S103P/S104F/H111F (APFF) & L6_IGKJ1*01 S30T (Fab, V domains shown)
VH: B4 VH
VL: B5 VL with R30T
notes: Fab made in E. coli; The constant parts (CH1 with His6 and Flag tags from plasmid A, kappa CL from plasmid C) are not added here; also called APFF & S30T
B27: Fab VH1-46_IGHD6-6*01_IGHJ1*01 S102A/S103P/S104F/H111F (APFF) & L6_IGKJ1*01 S31K (Fab, V domains shown)
VH: B4 VH
VL: B5 VL with R30S, S31K
notes: Fab made in E. coli; The constant parts (CH1 with His6 and Flag tags from plasmid A, kappa CL from plasmid C) are not added here; also called APFF & S31K
B28: Fab VH1-46_IGHD6-6*01_IGHJ1*01 S102A/S103P/S104F/H111F (APFF) & L6_IGKJ1*01 S30A (Fab, V domains shown)
VH: B4 VH
VL: B5 VL with R30A
notes: Fab made in E. coli; The constant parts (CH1 with His6 and Flag tags from plasmid A, kappa CL from plasmid C) are not added here; also called APFF & S30A

Tests used:
[1] = molecular target: T1, Recombinant Human DLL4 (human, UniProt Q9NR61 27-524); assay: ELISA, DLL4 coated on the plate, Fab at 100 nM, signal minus blank
T1 construct: Bought recombinant human DLL4 (R&D Systems Cat#1506-D4/CF); also called delta-like protein 4; Delta-like 4

[2] = molecular target: T2, Recombinant Human DLL4 (delta-like protein 4) (human, UniProt Q9NR61 27-524); assay: ECL (MSD) multispot binding assay, antigen spotted on plate, Fab in solution;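 also: purified Fab incubated 1 h at 20 °C, detected via TAG-labelled antibody electrochemiluminescence, antigen spot compared with the blank in the same well, ratio at least 4 counted as hit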
T2 construct: Bought recombinant human DLL4 (R&D Systems Cat#1506-D4/CF); also called rHuman DLL4

Row | Binder | ELISA Signal-blank (100 nM Fab) [1] | Signal/Blank [2] | ECL signal [2]
1 | B1 | 0.393 |  | 
2 | B2 | 0.07 |  | 
3 | B3 | 0.216 |  | 
4 | B4 |  | 389 | 
5 | B5 |  | 682 | 189000
6 | B6 |  | 511 | 
7 | B7 |  | 605 | 178000
8 | B8 |  | 156 | 
9 | B9 |  | 313 | 
10 | B10 |  | 497 | 175000
11 | B11 |  | 576 | 191000
12 | B12 |  | 662 | 188000
13 | B13 |  | 506 | 178000
14 | B14 |  | 497 | 141000
15 | B15 |  | 882 | 
16 | B16 |  | 459 | 
17 | B17 |  | 4.2 | 1260
18 | B18 |  | 838 | 
19 | B19 |  | 558 | 166000
20 | B20 |  | 602 | 197000
21 | B21 |  | 378 | 
22 | B22 |  | 373 | 
23 | B23 |  | 406 | 165000
24 | B24 |  | 517 | 171000
25 | B25 |  | 541 | 
26 | B26 |  | 348 | 136000
27 | B27 |  | 351 | 179000
28 | B28 |  | 1010 | 187000
